Experimental data from the nanobody polyreactivity screen of Harvey et al. (2022).

Experiment: yeast display, Sf9 membrane polyspecificity reagent, FACS + sequencing; frameworks hold sequencing errors
Outline: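 Nanobodies came from a synthetic yeast display library in Saccharomyces cerevisiae BJ5465, induced with galactose for 36–48 hours and stained for 1 hour at 4 °C with 10% biotinylated, detergent-solubilized Sf9 membrane reagent. Cells were enriched on streptavidin microbeads and then FACS-sorted, with low and high (top ~1%) gates set on anti-HA fluorescence for expression and streptavidin fluorescence for reagent binding. Each polyreactivity label reflects the gate a clone came from. Genes were amplified by colony PCR, sequenced by MiSeq 2 × 250 and filtered by CDR length.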
In the case of “QVQLLESGGGLVQAGGSLRLSCKARGSILGDRMSWYRQAPVKEHELVATIYDGGITYYADSMKGRFTISRDNAKNTVYLQMNRLRPEDTAVYYCGASFEGYRYHVYCGQGTQVTVSS”, the “polyreactivity (PSR sort gate)” value is reported as “low polyreactivity”.
With “QVQLVESGRGLVQAGGSLRLSCAASGRIFGINAMGGYRQAPGKERELVAPITSGVSTNYADSVKGRFTISRDNAKNTVYLQMNSLKPGDTAVYYCAARPRWYFFSYGRQDYGYWGQGTQVTVSS” the “polyreactivity (PSR sort gate)” value was “low polyreactivity”.
For “QDQLVESGGGLVQAGGSLRLRCAASGFIFRYYAMGWYRQAPGKERELVAAIDYSGGSTNYADSVKRRFTISRDNAKNTVYLQMNSLKPEDTAVYYCNAEYTWHRGYDYWGQGTQVTVSS”, the “polyreactivity (PSR sort gate)” value was “low polyreactivity”.
For “QVQLVESGGGLVQAGGSLRLSCAASGNIFVSNVMGWYRQAPGKERELVAAISSGGRTYYADSVKGRFTISRDNAKNTVYLQMNSLKPEDTAVYYCAASYKSKYLGGGEYWGQGTQVTVSS”, the “polyreactivity (PSR sort gate)” value was “high polyreactivity”.
For “QVQLVETGGVLVQAGGSLSLSCAASGSTFGWYVMGWYRQAPGKERELVAAITYSGDSTYYADSVKGRFTISRDNAKNTVYLQMNSLKPEDTAVYYCAADLSGYGKRYDYWGQGNQVTVSS”, the “polyreactivity (PSR sort gate)” value was “low polyreactivity”.
In the case of “QVQLVESGGGLVQAGGSLRLSCAASGRTYHAYAMGWYRQAPGKGRELVAAITRTGTTHYADSVKGRFTISRDNAKNTVYLQMNSLKPEETAVYYCNKATQFYQWGASPYYPRRDYWGQGTQVTVSS”, the “polyreactivity (PSR sort gate)” value is reported as “low polyreactivity”.
With “QVQLVESGGGLVQAGGSLRLSCAASGRIIQYNAMGWYRQAPGKERELVAAMSWRSGRTYYADSVKGRFTISRDNAKNTVYLQMNSLKPEDTAVYYCAATSRTSWYGYWGQGTQVTVSS” the “polyreactivity (PSR sort gate)” value was “high polyreactivity”.
In the case of “QVQLVESGGGLVQAGGSLRLSCAASGNIFSSYAMGWYRQAPGKERELVARITTSAGRTYYADSVKGRFTISRDNAKNTVYLQMNSLKREETAVYSCAARGQSAYSIWRYYYWGQGTQVTVSS”, the “polyreactivity (PSR sort gate)” value is reported as “high polyreactivity”.
In the case of “QEQLQESGGGQVQAGGSLLLSCAASGNIIRYYYMGWYRQAQGKVRELVAAITYGTSTNYADSVKGRFTISRDNAKNTVYLQMNSLKPEDTAVYYCAVDVNYGDPLDNWGEGTQVTVSS”, the “polyreactivity (PSR sort gate)” value is reported as “high polyreactivity”.
With “QVQLVESGGGLVQAGGSLRLSCAASAFTFKYNVMGWYRQAPGTERELLAAISKRGGNTYYADSVKGRFTISRDNAKNTVYLQMNSLKPEDTAVYYCAADPTSPETSGQGYDYWGQGTQVTVSS” the “polyreactivity (PSR sort gate)” value was “high polyreactivity”.
For “HVQLVESGGGLVQAGGSLRLSCAASGRISIRNAMGWYRQAPGKERELGAAISRSGGSTYYADSVKGRFTISRDNAKNTVYIQMNSLKPEDTAVYYCAASFWSSGQWYDYWGQGTQVTVSS”, the “polyreactivity (PSR sort gate)” value was “high polyreactivity”.
With “QVQLVESGGVVVQAGGSLRLSCAASGFTIDYYAMGWYRQARGQERELVATINGASYTNYADSVKGRFTISRDNAKNTVYLQMNSLKPEDTAVYYCNARYYGPDFVLAYDYWGQGTQVTVSS” the “polyreactivity (PSR sort gate)” value was “low polyreactivity”.
In the case of “QVQLVESGGGLVQAGGSLRLSCAASGFTFSPNAMGWDRQAPGKERELVATISWNGGRTHYADSVKGRFTISRDNANKTVYLQMNSLKPEDTAVYYCNVVRATGRYYYWGQGTQVTVSS”, the “polyreactivity (PSR sort gate)” value is reported as “high polyreactivity”.
For “QVQLVESGGGLVQAGGSLRLSCAASGRIFVGYAMGWSRQAPRNERELVAAISDRGGNTYYADSVKGRFTISRDNAKNTVYFQMNSLKPEDTAVYYCAKEVRWWYGYWGQGTQVTVSS”, the “polyreactivity (PSR sort gate)” value was “high polyreactivity”.
For “KVQLVESRGGLVQAGGSLRLSCAASGIIFYTYAMGWNRQAPGKERELVASISWDVDSTNYADSVKGRFTISRDNAKNTVYLQMNSLKPEYTAVYYCAVDYTFDSYWYWVDYYEYGYWGQGTQVTVSS”, the “polyreactivity (PSR sort gate)” value was “high polyreactivity”.
For “QVQLVESGGGLFQAGGSLRLICAASGRIFDVNAMGWYRQAPRKEREMVAAISWSGGITYYADSVKGRFTISRDNAKNTVYLQMNSLKPEDTAVYYCAADKYQGYTFYQGYPGGGGYWGQGTQVTVSS”, the “polyreactivity (PSR sort gate)” value was “low polyreactivity”.
In the case of “QVQLVESGGGLVQAGGSLRLSCAASGSIFVINAMGWYRQAPGKERELVAAISYSGTGTYYADSVKGRFTISRDNAKNTVYLQMNSLKPEDTAVYYCAADYYYRYRIYDYWGQGTQVTVSS”, the “polyreactivity (PSR sort gate)” value is reported as “low polyreactivity”.
With “QVQLVESGGGLVQAGGSLRLSCAASGSIYGRYVMGWYRQSPGKERELVATISSGGSTYYADSVKGRFTISRDNAKNTVYLQMNSLKPEDTAVYYCAASYSRFVDWIGDPGYDYWGQGTQVTVSS” the “polyreactivity (PSR sort gate)” value was “low polyreactivity”.
In the case of “QVQLVESGGGLVQAGGSLRLSCAASGSIFEIYAMGWYRQAPGKERELVAAISWSGGRTYYADSVKGRFTISRDNAKNTVYLQMNSLKPEDTAVYYCNAGQWRYPGLYYYWGQGTEVTVSS”, the “polyreactivity (PSR sort gate)” value is reported as “high polyreactivity”.
For “QVQHVESGGGLVQAGGSLRLSCAASGRIFYRNAMGWYRQAPGKERELVASITSAGRTYYADSVKGRFTISRDNAKNTVYLQMNSLKPEDTAVYYCAVRVAVLLNLYGYWGQGTQVTVSS”, the “polyreactivity (PSR sort gate)” value was “low polyreactivity”.
With “QVQLVESGGGLVHAGGSLRLSCAASGSIYVDNAMGWYRQAPGTERELVAVISWIGSSTYYADSVKGRFTISRDNAKYTVYFQMNSLNPEDTAVFYCAAAPSRTLLRQSKYYFWGQGTQVNVSS” the “polyreactivity (PSR sort gate)” value was “low polyreactivity”.
In the case of “QVQLVESGGGLVQAGGSLRLSCASSGSIFYTYAMGWYRQAPGKERELVAAISRSGGSTYYADSVKGRFTISRDNAKNTVYLQMNSLKPEDTAVYYCAAVSYRGRGYWGQGTQVTVSS”, the “polyreactivity (PSR sort gate)” value is reported as “high polyreactivity”.
With “QVQLVESGGGLVQAGGSLRLSCAASGSIFSSNAMGWYRQPPGKERELVAAITSGGSTYYADSVKGRFTISRDNAKNTVYLQMNSLKPEDTAVYYCAASYWGFQRMYYWGQGTQVTVSS” the “polyreactivity (PSR sort gate)” value was “high polyreactivity”.
For “QVQLVETGGVLVQAGGSLRLSCAASGRTFRYNAMGWYRPAPGKEREFVAAITWGGGSTYYADSVKGRFTISRDNAKNTVYLQMNSLKPEDTAVYYCNADYIGNYQSIYQYDYWGQGTQVTVSS”, the “polyreactivity (PSR sort gate)” value was “low polyreactivity”.
In the case of “QVQLVESGGGLVQAGGSLRLSCAASGFIFYGYAMGWYSQAPGKERELVAGISTGGSTNYADSVKGRFTISRDNAKNTVYLQMNSLKPEDTAVYYCAKRAYFYYGRYDYWGQGTQVTVSS”, the “polyreactivity (PSR sort gate)” value is reported as “low polyreactivity”.
With “QVQLVESGGGLVQAGGSLRLSCAASGSIFGINAMGWYRQAPGKERELVAAISWRGDSTSYADSVKGRFTISRDNAKNTVYLQMNSLKPEDTAVYYCAKGGTRFYVVGETYYYWGQGTQVTVSS” the “polyreactivity (PSR sort gate)” value was “low polyreactivity”.
In the case of “QVQHVDSGGGLVQAGGSLLLSCAASGFTFRTYAMGWYRQAPGKEREFVAAITTSGGSTYYADSVKGRFTISRDNAKNTVYLQMNSLKPEDTAVYYCAAKKATVVYRMEYWGQGTLVTVSS”, the “polyreactivity (PSR sort gate)” value is reported as “high polyreactivity”.
For “QVQLVESGGGLVQAGGSLRLSCAASGRTFAYNTMGWYRQAPGKERELVAAISTSGVRTFYADSVKGRFTISRDNAKNTVYLQMNSLKPEDTAVYSYDWGQGTQVTVSS”, the “polyreactivity (PSR sort gate)” value was “low polyreactivity”.
With “QVHLVESGGGLVQAGGSLRLSSAASGITFYGNAMGWYRQAPGKERELVATISSGGSTNYADSVKGRFTISRDNAKNTVYLQMHSLKPEDTAVYYCNAAPDVNRDYEGSGDYWGQGTQVTVSS” the “polyreactivity (PSR sort gate)” value was “low polyreactivity”.
With “QVQLVESGGGLVQAGGSLRLSCAASGFIFEDYAMGWYRQAPGKERELVAAITWRGGRTYYADSVKGRFTISRDNAKNTVYLQMNSLKPEDTAVYYCRPQVYSYASRYGYWGQGTQVTVLS” the “polyreactivity (PSR sort gate)” value was “low polyreactivity”.
For “QVQLVESGGGLLQAGGSLRLSCAASGRIFGRNTKGWYRQAPGKERELVAVISWRGGSTYYADSVKGRFTISRDNAKNSVYLQMNSLKPEDTAVYYCNAKYPFSRRGDYWGQGTQVTVSS”, the “polyreactivity (PSR sort gate)” value was “high polyreactivity”.
In the case of “QVQLVESGGGLVQAGGSLRLRCAASVRTFYTYAMGWYRQAPGKERELVAAISKRGTSTYYADSVKGRFTISRDNAKNTDYFQMNSLKPQDTAVYYCAAAVYQRARYYWGQGTQVTVSS”, the “polyreactivity (PSR sort gate)” value is reported as “high polyreactivity”.
For “QVQLVESGGGLVQAGGSLRLSCAASGSIFPGYAMGWYRQAPGKERELVATITYSDGSTYYADSVKRRFTISRDIATNTVFLQMNSLKPEDTAGYYCAVTYWWYYGYDYWGQGTQVTVSS”, the “polyreactivity (PSR sort gate)” value was “low polyreactivity”.
In the case of “QVQLVESGGGLVQAGGSLRLSCAPSGFTFSRYAMGWYRQAPGKERELVAAITRGGGNTYYADSVKGRFTISRDNAKNTVYLQMNSLKPEDTAVYYCNAQVGNFGYRSGGYDYWGQGTQVTVSS”, the “polyreactivity (PSR sort gate)” value is reported as “high polyreactivity”.
In the case of “QVQLVESGGGLVQAGGSLRLSCAPSGSIFERYAMGWYRHAPGKERELVAAISWRGGSTYYADSVKGRFTISRDNAKNTVYLQMNSLIQEDTAVYYCAADSRTCYYYWGQGTQVTVST”, the “polyreactivity (PSR sort gate)” value is reported as “high polyreactivity”.
In the case of “QVQLVESGGGLVQAGGSLRLSCGASGSFFYFYSMGWYRQAPGKEREVVAAITDGGSTHYADSVKGRFTISRDNAKNTVDLQMNSLKPEDTAVYYCAAQWHYYLGSGYQYDYWGQGTQVTVSS”, the “polyreactivity (PSR sort gate)” value is reported as “low polyreactivity”.
For “QVQLVESGGGLVQAGGSLRLSCAASGNTVYYYGMGWYRQAPGKERDLVAAINYSGGSTYYADSVKGRNTISRDNAKNTVYLPMNSKKPEVTAVYYCNADYVPAYRDLASLADGYYWGQGTQVTVSS”, the “polyreactivity (PSR sort gate)” value was “low polyreactivity”.
In the case of “QVQLVESGGGLVQAGGSLRLSCAASGFIFFTNTMGWYRQAPGKEWELVAAINSNGGRTYYADSVKGRFTISRDNAKNTVYLQMNSLKPEDTAVYYCAARSVGGVARLDYWGQGTQVTVSS”, the “polyreactivity (PSR sort gate)” value is reported as “low polyreactivity”.
With “QVQLVESGGGLVQAGGSLRLSCAASGFTFNYSAKGWYRQAPGKEREFVAAISRGGGRTYYADSVKGRFTISRDNANNTVYLQMNSLKPEATAVYSCAAQSVPYAYPLASYDYWGQGTQVTVSS” the “polyreactivity (PSR sort gate)” value was “high polyreactivity”.
For “QVQLVESGGGLVQAGGSLRLSCAASGGTFPQNVMGWYRPAPGKERELVAAISSGGSTYYADSVKVRFTISRDNAKNTVYFQMNSLIPEDTGVYYCAKRRWYRYDYWGQGTQVTVSS”, the “polyreactivity (PSR sort gate)” value was “high polyreactivity”.
With “QVQLLESGGGLVQAGGSLRLSCAASGRTFQRNAMGWYRQAPGKETELVATITTNGGSTYYADSVKGRFTISRDNAKNTVYLQMNSLKPEDTAVYYCAAPFNPRVRTLRSVRMDYWGQGTQVTVSS” the “polyreactivity (PSR sort gate)” value was “low polyreactivity”.
In the case of “QVQLVESGGGLVQAGGSLRLSCAASGLTFTTYAMGWYRQAPGKERELVAAISRRGSRTYYADSVKGRFTISRDNAKNTVYLQMNSLKPEDTAVYYCARRAGSYPYGYTGYDYWGQGTQVTVSS”, the “polyreactivity (PSR sort gate)” value is reported as “high polyreactivity”.
In the case of “QVQLVESGGGLVQAGGSLRLSCAASGTIFTDNVMGWYRQAPGKERELVAAITYSAASTYYADSVKGRFTISRDNAKNTVYLQMNSLKPEDTAVYYCNADDPDYLVSYRYDYWGQGTQVTVSS”, the “polyreactivity (PSR sort gate)” value is reported as “low polyreactivity”.
